We go through 1 substance from US20180141972.

In data set [1] the test system is Spycatcher-WELQ-LSSmOrange fusion protein.
Data set [2] addresses Spycatcher-WELQ-Tem1 fusion protein (Spycatcher followed by a SplB protease site with a P1' methionine and the lactamase Tem1) (UniProt P62593).

Take SplB protease fused to Spytag: in data set [1], the “cleavage of the fusion protein to native LSSmOrange (gel, FIG. 4)” value was “A similar experiment with LSSmOrange replacing Tem1 yielded the same result”. In addition, in data set [2], the “cleavage of the fusion protein to native Tem1 (gel, FIG. 3)” value was “this led to the cleavage of Tem1 at the first methionine”.
